Test results published in US20210340225A1 (HARBOUR ANTIBODIES, published 2021).

Legend:
[1] = biological target: T1, SARS-CoV-2 spike S1B receptor binding domain (SARS2-S1B), residues 329-538, Strep-tagged (SARS-CoV-2 (strain Wuhan-Hu-1), UniProt P0DTC2 329-538); test: ELISA, serial dilution of supernatant after transfection
[2] = biological target: T2, SARS-CoV spike [change] receptor binding domain (SARS-[change]), residues 325-533, Strep-tagged (SARS-CoV, UniProt P59594 325-533); test: as above
[3] = biological target: T3, SARS-CoV-2 spike ectodomain (SARS2-Secto), residues 1-1,213, with C-terminal trimerization motif and Strep-tag (SARS-CoV-2 (strain Wuhan-Hu-1), UniProt P0DTC2 14-1213)
[4] = biological target: T1, SARS-CoV-2 spike S1B receptor binding …
[5] = biological target: T2, SARS-CoV spike [change] receptor …
[6] = biological target: T1, SARS-CoV-2 spike S1B receptor binding …; test: ELISA, antigen coated at equimolar amounts, mAb titrated; ELISA EC50, not BLI
[7] = biological target: T3, SARS-CoV-2 spike ectodomain …; remark: listed apart in the source
[8] = biological target: T1, SARS-CoV-2 spike S1B receptor binding …; remark: listed apart in the source
[9] = biological target: T2, SARS-CoV spike [change] receptor …; remark: listed apart in the source
[10] = biological target: T3, SARS-CoV-2 spike ectodomain …; test: ELISA, antigen coated at equimolar amounts, mAb titrated
[11] = biological target: T2, SARS-CoV spike [change] receptor …; test: as above
[12] = biological target: SARS2-S with 18-a.a. cytoplasmic tail truncation, on pseudotyped VSV particles (SARS-CoV-2, UniProt P0DTC2 14-1255); test: cell-based or functional assay
[13] = biological target: SARS-S with 28-a.a. cytoplasmic tail truncation, on pseudotyped VSV particles (SARS-CoV, UniProt P59594 14-1227); test: cell-based or functional assay
[14] = biological target: WIV16-S with 19-a.a. cytoplasmic tail truncation, on pseudotyped VSV particles (bat SARS-like coronavirus WIV16); test: cell-based or functional assay
[15] = biological target: T1, SARS-CoV-2 spike S1B receptor binding …; remark: listed apart in the source
[16] = biological target: T2, SARS-CoV spike [change] receptor …; remark: listed apart in the source

Binder	binding result [1]	binding result [2]	koff [3] [s⁻¹]	kon [3] [M⁻¹ s⁻¹]	koff [4] [s⁻¹]	kon [4] [M⁻¹ s⁻¹]	koff [5] [s⁻¹]	kon [5] [M⁻¹ s⁻¹]	EC50 [6] [mg/L]	Kd [7] [µM]	Kd [8] [µM]	Kd [9] [µM]	EC50 [10] [mg/L]	EC50 [11] [mg/L]	IC50, infection of VeroE6 cells with SARS2-S pseudotyped VSV (luciferase) [12] [mg/L]	IC50, infection of VeroE6 cells with SARS-S pseudotyped VSV (luciferase) [13] [mg/L]	IC50, neutralization of WIV16-S pseudotyped VSV [14] [mg/L]	EC50 (read off the curve) [15] [mg/L]	EC50 (read off the curve) [16] [mg/L]
49F1 VH41 VL42-4 (antibody, V domains shown) VH: QVQLVQSGAEVKKPGSSVKVSCKASGGTFSSYAINWVRQAPGQGLEWMGGIIPIFGTANSAQKFQGRVTITADKSTSTAYMELSSLRSEDTAVYYCAREAGIPVAGLADWGQGTLVTVSS VL: DIQMTQSPSTLSASVGDRVTITCRASQSISSYLNWYQQKPGKAPKLLIYKASSLESGVPSRFSGSGSGTEFTLTISSLQPDDFGTYYCQQYNSYYTFGQGTKLEIK	no binding (tested: undiluted supernatant)	no binding (tested: undiluted supernatant)																	
47D11 fully human IgG1 monoclonal antibody (antibody, V domains shown) VH: QVQLQESGPGLVKPSETLSLTCSVSGGSISSHYWSWIRQPPGKGLEWIGYIYYSGSTNHNPSLKSRVTISVDTSKNQFSLKLSSVTAADTAVYYCARGVLLWFGEPIFEIWGQGTMVTVSS VL: EIVMTQSPATLSVSPGERATLSCRASQSVSSSLAWYQQKPGQAPRLLIYGASTRAPGIPARFSGSGSGTEFTLTISSLQSEDFAVYYCQQYNNWPLTFGGGTKVEIKR			9.85e-05	9770	0.000137	15100	0.00021	20000	0.03	0.0108	0.0096	0.0161	0.15	0.02	0.08	0.06	0.165	~0.1	~0.1
